Results published in patent US20160280792A1 (Kyowa Kirin, published 2016).

Legend:
[1] = target: T1, IL-3Rα/GM-CSFRα chimeric protein, A domain of IL-3Rα replaced by that of GM-CSFRα, on HEK293T cells (human, UniProt P15509 23-114); assay: flow cytometry, labelled antibody at 1 µg/ml, HEK293T cells expressing the construct
T1 construct: domain: A domain; The KpnI site (GGTACC) at the junction encodes an extra Gly-Thr; also called A domain substitution
T1 sequence: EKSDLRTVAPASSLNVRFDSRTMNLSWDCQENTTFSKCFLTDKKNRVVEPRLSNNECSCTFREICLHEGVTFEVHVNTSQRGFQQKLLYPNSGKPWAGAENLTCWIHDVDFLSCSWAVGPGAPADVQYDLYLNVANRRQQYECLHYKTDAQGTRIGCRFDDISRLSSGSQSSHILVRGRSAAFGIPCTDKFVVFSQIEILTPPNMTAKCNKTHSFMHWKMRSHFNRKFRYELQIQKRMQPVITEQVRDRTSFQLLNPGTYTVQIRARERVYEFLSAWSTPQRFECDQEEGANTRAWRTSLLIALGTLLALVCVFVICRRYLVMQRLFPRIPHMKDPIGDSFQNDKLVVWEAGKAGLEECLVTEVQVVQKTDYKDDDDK
Protocol: (§1) HEK293T cell (ATCC CRL 1268) was used for the preparation of the IL-3Rα/GM-CSFRα chimeric protein expression cell. Using 293Fectin (Invitrogen), the plasmid DNA obtained in the above was introduced as an expression vector into the HEK293T. The HEK293T to which the expression vector was introduced was cultured using a shaker under conditions of 5% CO₂ and 37° C. after 2 days of the introduction, the […] was used for in the flow cytometry analysis.
(§2) From 100,000 to 1,000,000 cells of the chimeric protein expression cell were allowed to react for 30 minutes on ice with at a concentration of 1 μg/ml with an AlexaFlour488-labeled human antibody or a commercially available FITC-labeled anti-IL-3Rα mouse antibody (7G3 or 9F5: both from BD Biosciences, 6H6: Acris Antibodies, AC145: Milteny Biotech, 107D2.08: Dendritics). A staining medium (Dulbecco's PBS supplemented with 2% fetal bovine serum, 2 mM EDTA and 0.05% NaN₃) was used for the dilution of antibodies and cells. Next, the cells reacted with antibodies were washed three times with the staining medium and whether the labeled antibody bound to the cell was confirmed by flow cytometry.

[2] = target: T2, IL-3Rα/GM-CSFRα chimeric protein, B domain of IL-3Rα replaced by that of GM-CSFRα, on HEK293T cells (human, UniProt P15509 115-213); assay: as above
T2 construct: domain: B domain; The KpnI sites (GGTACC) at both junctions each encode an extra Gly-Thr; also called B domain substitution
T2 sequence: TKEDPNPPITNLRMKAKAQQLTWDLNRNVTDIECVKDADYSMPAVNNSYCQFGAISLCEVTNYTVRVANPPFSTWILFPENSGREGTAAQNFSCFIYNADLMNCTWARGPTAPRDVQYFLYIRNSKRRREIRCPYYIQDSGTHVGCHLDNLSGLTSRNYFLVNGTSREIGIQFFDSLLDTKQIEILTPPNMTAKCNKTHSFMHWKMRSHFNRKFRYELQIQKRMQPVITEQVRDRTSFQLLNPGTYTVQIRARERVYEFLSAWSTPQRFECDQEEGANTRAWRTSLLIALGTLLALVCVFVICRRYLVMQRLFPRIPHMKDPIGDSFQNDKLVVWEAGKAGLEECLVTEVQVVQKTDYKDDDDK
Protocol: as §1, §2

[3] = target: T3, soluble form of human IL-3Rα protein (extracellular region with C-terminal FLAG tag) (human, UniProt P26951 19-305); assay: SPR (Biacore 2000): antibody captured on anti-human antibody CM5 chip, soluble IL-3Rα as analyte, 1:1 Langmuir fit
T3 construct: Made in CHOras1 cells, purified on anti-FLAG gel; also called soluble form of IL-3Rα protein; soluble form of human IL-3Rα extracellular region
T3 sequence: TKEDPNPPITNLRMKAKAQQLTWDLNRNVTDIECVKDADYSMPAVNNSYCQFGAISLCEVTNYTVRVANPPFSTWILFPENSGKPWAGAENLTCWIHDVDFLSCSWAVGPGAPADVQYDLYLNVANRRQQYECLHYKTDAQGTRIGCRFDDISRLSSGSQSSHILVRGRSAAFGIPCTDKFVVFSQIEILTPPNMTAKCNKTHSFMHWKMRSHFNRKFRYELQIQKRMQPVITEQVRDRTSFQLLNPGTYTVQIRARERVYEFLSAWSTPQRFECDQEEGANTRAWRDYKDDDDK
Protocol: Specifically, CM5 (research grade) was used for a sensor tip (each GE). Firstly, the CM5 tip was activated by applying an equivalent mixture of 400 mM EDC (N-ethyl-N′-(3-dimethylaminopropyl)carbodiimidehydrochloride) and 100 mM NHS (N-hydroxysuccinimide) to the CM5 tip. Next, an antibody to the human antibody attached to the Human Antibody Capture Kit (GE) (hereinafter, referred to as anti-human antibody antibody) was diluted with the solution attached to the kit and applied thereto, thereby immobilizing the required amount of the anti-human antibody antibody to the CM5 tip. Regarding the mouse antibody to be used as a control, an antibody to the mouse antibody attached to the Mouse Antibody Capture Kit (GE) (hereinafter, referred to as anti-mouse antibody antibody) was diluted with the solution attached to the kit and applied thereto, thereby immobilizing a necessary amount thereof to the CM5 tip. Next, the surface of the activated tip was blocked and inactivated by applying 1 M of ethanolamine dihydrochloride thereto. By the above steps until this, preparation of a CM5 sensor tip which can measure the dissociation constant KD was completed.
Next, each of anti-IL-3Rα antibodies, was diluted to give a concentration of 5 μg/ml with HBS-FP buffer (GE) one kind per one flow cell and applied, thereby allowing it to bind to the immobilized anti-human antibody antibody or anti-mouse antibody antibody. Next, the soluble form of IL-3Rα protein was applied thereto. In order to dissociate the bound anti-IL-3Rα antibody and soluble form of IL-3Rα protein, 3 M MgCl₂ attached to Human Antibody Capture Kit or pH 1.7 of Glycine-HCl attached to Mouse Antibody Capture Kit was applied in the amount attached to the kit. The steps until this were regarded as one step. By repeating the same steps using two or more concentrations of the soluble form of IL-3Rα protein, data for calculating association and dissociation constants (sensorgram) were obtained.
In the analysis, Biaevaluation software (GE) was used and Biaevaluation Software Handbook was referred. Specifically, by carrying out simultaneous analysis of kinetics analysis, employing basically the 1:1 Langmuir binding reaction model and fitting, association rate constant (Ka) and dissociation rate constant (Kd) were calculated, and the value of dissociation constant KD was calculated by the calculation of Kd/Ka.

- binding result [1]: no binding (tested: 1 µg/ml)
- binding result [2]: no binding (tested: 1 µg/ml)
- Kd [3]: 3.24 nM
B1: Old19 anti-human IL-3Rα human antibody (antibody, human IgG1, V domains shown)
VH: QVQLVQSGAEVKKPGSSVKVSCKASGGTFSSYAISWVRQAPGQGLEWVGGIIPIFGTANYAQKFQGRVTITADESTSTAYMELSSLRSEDTAVYYCARGHKYGPYYFDYWGQGTLVTVSS
VL: DIQMTQSPSSLSASVGDRVTITCRASQGISSWLAWYQQKPEKAPKSLIYAASSLQSGVPSRFSGSGSGTDFTLTISSLQPEDFATYYCQQYNSYPRTFGQGTKVEIK
notes: Human antibody; recombinant form in N5KG1-Val Lark vector (human IgG1, kappa)
